According to patent publication US20140187758A1:

Tests used:
[1] = target: European Corn Borer-aminopeptidase 1 (Ostrinia nubilalis)
[2] = target: European Corn Borer-cadherin (Ostrinia nubilalis)

“Cry1Ac core toxin (trypsin-cleaved Cry1Ac holotoxin) (from UniProt P05068 29-623) (ligand)” gave a Kd [1] of 107 nM and a Kd [2] of 48 nM.
